Experimental data published in US20220380454A1 (University of California, published 2022).

Legend:
[1] = target: T1, oligomeric Aβ42 (biotin-Aβ42 oligomers) (human, biotin (human biotin-beta-Amyloid (1-42), AnaSpec); position not stated); assay: biotin-Aβ42 oligomers on transfected HEK293T cells, streptavidin staining
T1 construct: Mixture of oligomers prepared from human Aβ42 (24-26 h at 4 °C, supernatant); The number of copies per oligomer is therefore not fixed; also called Aβ oligomers; oligomerized Aβ

[2] = target: T1, oligomeric Aβ42 (biotin-Aβ42 oligomers); assay: biotin-Aβ42 oligomers on transfected HEK293T cells, 488-conjugated streptavidin staining
Description: Binding assay. HEK293 cells were transiently transfected (polyethylenimine) with expression vectors encoding TdTomato, Celsr3-Flag or control empty vectors (pCAGEN). […] DAPI was used to counterstain cell nuclei; TdTomato was used to monitor construct transfection. Anti-flag antibody was used to stain Celsr3. Fluorescent images were captured with Zeiss LSM 880 fast airyscan using a 63× oil-immersion objective.

Binder	binding result [1]	binding result [2]
mouse Ryk-HA (receptor, UniProt Q01887 35-594, looked up, whole, on cells; Expressed in HEK293T cells; not shown: HA tag) RSPALAAAPAGPSVSLYLSEDEVRRLLGLDAELYYVRNDLISHYALSFNLLVPSETNFLHFTWHAKSKVEYKLGFQVDNFVAMGMPQVNISAQGEVPRTLSVFRVELSCTGKVDSEVMILMQLNLTVNSSKNFTVLNFKRRKMCYKKLEEVKTSALDKNTSRTIYDPVHAAPTTSTRVFYISVGVCCAVIFLVAIILAVLHLHSMKRIELDDSISASSSSQGLSQPSTQTTQYLRADTPNNATPITSSSGYPTLRIEKNDLRSVTLLEAKAKVKDIAISRERITLKDVLQEGTFGRIFHGILVDEKDPNKEKQTFVKTVKDQASEVQVTMMLTESCKLRGLHHRNLLPITHVCIEEGEKPMVVLPYMNWGNLKLFLRQCKLVEANNPQAISQQDLVHMAIQIACGMSYLARREVIHRDLAARNCVIDDTLQVKITDNALSRDLFPMDYHCLGDNENRPVRWMALESLVNNEFSSASDVWAFGVTLWELMTLGQTPYVDIDPFEMAAYLKDGYRIAQPINCPDELFAVMACCWALDPEERPKFQQLVQCLTEFHAALGAYV	no binding (tested: 200 nM total peptide, monomer equivalent)	
Frizzled3-HA (receptor, not shown: small tags and cut ends, Expressed in transfected HEK293T cells; also called Fzd3-HA; HA-tagged Frizzled3) HSLFSCEPITLRMCQDLPYNTTFMPNLLNHYDQQTAALAMEPFHPMVNLDCSRDFRPFLCALYAPICMEYGRVTLPCRRLCQRAYSECSKLMEMFGVPWPEDMECSRFPDCDEPYPRLVDLNLVGDPTEGAPVAVQRDYGFWCPRELKIDPDLGYSFLHVRDCSPPCPNMYFRREELSFARYFIGLISIICLSATLFTFLTFLIDVTRFRYPERPIIFYAVCYMMVSLIFFIGFLLEDRVACNASSPAQYKASTVTQGSHNKACTMLFMVLYFFTMAGSVWWVILTITWFLAAVPKWGSEAIEKKALLFHASAWGIPGTLTIILLAMNKIEGDNISGVCFVGLYDVDALRYFVLAPLCLYVVVGVSLLLAGIISLNRVRIEIPLEKENQDKLVKFMIRIGVFSILYLVPLLVVIGCYFYEQAYRGIWETTWIQERCREYHIPCPYQVTQMSRPDLILFLMKYLMALIVGIPSIFWVGSKKTCFEWASFFHGRRKKEIVNESRQVLQEPDFAQSLLRDPNTPIIRKSRGTSTQGTSTHASSTQLAMVDDQRSKAGSVHSKVSSYHGSLHRSRDGRYTPCSYRGMEERLPHGSMSRLTDHSRHSSSHRLNEQSRHSSIRDLSNNPMTHITHGTSMNRVIEEDGTSA		no binding (tested: 200 nM total peptide, monomer equivalent)
Vangl2-Flag (other, not shown: small tags and cut ends) MDTESQYSGYSYKSGHSRSSRKHRDRRDRHRSKSRDGSRGDKSVTIQAPGEPLLDNESTRGDERDDNWGETTTVVTGTSEHSISHDDLTRIAKDMEDSVPLDCSRHLGVAAGAILALLSFLTPLAFLLLPPLLWREELEPCGTACEGLFISVAFKLLILLLGSWALFFRRPKASLPRVFVLRALLMVLVFLLVISYWLFYGVRILDARERSYQGVVQFAVSLVDALLFVHYLAVVLLELRQLQPQFTLKVVRSTDGASRFYNVGHLSIQRVAVWILEKYYHDFPVYNPALLNLPKSVLAKKVSGFKVYSLGEENSTNNSTGQSRAVIAAAARRRDNSHNEYYYEEAEHERRVRKRRARLVVAVEEAFTHIKRLQEEEQKNPREVMDPREAAQAIFASMARAMQKYLRTTKQQPYHTMESILQHLEFCITHDMTPKAFLERYLAAGPTIQYHKERWLAKQWTLVSEEPVTNGLKDGIVFLLKRQDFSLVVSTKKVPFFKLSEEFVDPKSHKFVMRLQSETSV		no binding (tested: 200 nM total peptide, monomer equivalent)
human Ryk-Flag (receptor, not shown: Flag tag) PPPLLLLLALLPLLPAPGAAAAPAPRPPELQSASAGPSVSLYLSEDEVRRLIGLDAELYYVRNDLISHYALSFSLLVPSETNFLHFTWHAKSKVEYKLGFQVDNVLAMDMPQVNISVQGEVPRTLSVFRVELSCTGKVDSEVMILMQLNLTVNSSKNFTVLNFKRRKMCYKKLEEVKTSALDKNTSRTIYDPVHAAPTTSTRVFYISVGVCCAVIFLVAIILAVLHLHSMKRIELDDSISASSSSQGLSQPSTQTTQYLRADTPNNATPITSSLGYPTLRIEKNDLRSVTLLEAKGKVKDIAISRERITLKDVLQEGTFGRIFHGILIDEKDPNKEKQAFVKTVKDQASEIQVTMMLTESCKLRGLHHRNLLPITHVCIEEGEKPMVILPYMNWGNLKLFLRQCKLVEANNPQAISQQDLVHMAIQIACGMSYLARREVIHKDLAARNCVIDDTLQVKITDNALSRDLFPMDYHCLGDNENRPVRWMALESLVNNEFSSASDVWAFGVTLWELMTLGQTPYVDIDPFEMAAYLKDGYRIAQPINCPDELFAVMACCWALDPEERPKFQQLVQCLTEFHAALGAYV	no binding (tested: 200 nM total peptide, monomer equivalent)	
